Measured values taken from article PMC13127578, “Mavacamten inhibits myosin activity by stabilizing the myosin interacting-heads motif and stalling motor force generation” (Science Advances, 2026).
Values belong to the binder of their own block, whether it stands above or below them.

Assays:
[1] = target: the molecule itself; experiment: cryo-EM structure; IHM_(mava): 2 μM cHMM with 1 mM ATP, 50 μM mavacamten (5% DMSO), cross-linked with 1 mM BS3, 50 mM KCl, 10 mM Mops pH 7; Lacey continuous carbon grid; ADP.Pi state; 3.7 Å
[2] = target: T1, single-headed human beta-cardiac myosin S1 (cS1), MYH7 residues 1 to 834 fused to GFP and FLAG (human, UniProt P12883 1-834); experiment: cross-linking; quantitative XL-MS with DSBU (600 μM, 20 min, 25°C) on 4 μM purified cS1 with bound light chains, 10 mM Mops pH 7.3, 50 mM KCl, 1 mM ATP, with 50 μM mavacamten or DMSO; conditions: both partners purified
T1 construct: beta-cardiac myosin heavy chain (MYH7), human, residues 1 to 834, followed by a short linker, a GFP domain and a FLAG tag; also called cS1gfp

B1: human beta-cardiac heavy meromyosin (β-cHMM) heavy chain, MYH7 residues 1 to 1137 (domain or fragment, UniProt P12883 1-1137, looked up)
chain: MGDSEMAVFGAAAPYLRKSEKERLEAQTRPFDLKKDVFVPDDKQEFVKAKIVSREGGKVTAETEYGKTVTVKEDQVMQQNPPKFDKIEDMAMLTFLHEPAVLYNLKDRYGSWMIYTYSGLFCVTVNPYKWLPVYTPEVVAAYRGKKRSEAPPHIFSISDNAYQYMLTDRENQSILITGESGAGKTVNTKRVIQYFAVIAAIGDRSKKDQSPGKGTLEDQIIQANPALEAFGNAKTVRNDNSSRFGKFIRIHFGATGKLASADIETYLLEKSRVIFQLKAERDYHIFYQILSNKKPELLDMLLITNNPYDYAFISQGETTVASIDDAEELMATDNAFDVLGFTSEEKNSMYKLTGAIMHFGNMKFKLKQREEQAEPDGTEEADKSAYLMGLNSADLLKGLCHPRVKVGNEYVTKGQNVQQVIYATGALAKAVYERMFNWMVTRINATLETKQPRQYFIGVLDIAGFEIFDFNSFEQLCINFTNEKLQQFFNHHMFVLEQEEYKKEGIEWTFIDFGMDLQACIDLIEKPMGIMSILEEECMFPKATDMTFKAKLFDNHLGKSANFQKPRNIKGKPEAHFSLIHYAGIVDYNIIGWLQKNKDPLNETVVGLYQKSSLKLLSTLFANYAGADAPIEKGKGKAKKGSSFQTVSALHRENLNKLMTNLRSTHPHFVRCIIPNETKSPGVMDNPLVMHQLRCNGVLEGIRICRKGFPNRILYGDFRQRYRILNPAAIPEGQFIDSRKGAEKLLSSLDIDHNQYKFGHTKVFFKAGLLGLLEEMRDERLSRIITRIQAQSRGVLARMEYKKLLERRDSLLVIQWNIRAFMGVKNWPWMKLYFKIKPLLKSAEREKEMASMKEEFTRLKEALEKSEARRKELEEKMVSLLQEKNDLQLQVQAEQDNLADAEERCDQLIKNKIQLEAKVKEMNERLEDEEEMNAELTAKKRKLEDECSELKRDIDDLELTLAKVEKEKHATENKVKNLTEEMAGLDEIIAKLTKEKKALQEAHQQALDDLQAEEDKVNTLTKAKVKLEQQVDDLEGSLEQEKKVRMDLERAKRKLEGDLKLTQESIMDLENDKQQLDERLKKKDFELNALNARIEDEQALGSQLQKKLKELQARIEELEEELEAERTARAKVEKLRS
notes: FLAG tag at 1138 to 1146; Two heavy chains form the two-headed cHMM; in the sample each carries a mouse ELC and RLC; For cryo-EM and negative stain the sample was cross-linked with BS3 in the presence of ATP; also called βCM; beta-cardiac myosin
- binding result [1]: binds

- binding result [2]: binds
B2: human MYL2 (vLC2), ventricular regulatory light chain (natural protein, UniProt P10916 1-166, looked up)
chain: MAPKKAKKRAGGANSNVFSMFEQTQIQEFKEAFTIMDQNRDGFIDKNDLRDTFAALGRVNVKNEEIDEMIKEAPGPINFTVFLTMFGEKLKGADPEETILNAFKVFDPEGKGVLKADYVREMLTTQAERFSKEEVDQMFAAFPPDVTGNLDYKNLVHIITHGEEKD
notes: myosin regulatory light chain MYL2 (vLC2), human; also called RLC

- binding result [2]: binds
B3: human MYL3 (vLC1), ventricular essential light chain (natural protein)
chain: not shown
notes: myosin essential light chain MYL3 (vLC1), human; also called ELC
